Assays:
Human CD39-L2 = biological target: T1, Human CD39-L2 (human, UniProt O75354 61-484, limits assumed); assay: ELISA, recombinant isoform coated, dose range of antibody
T1 construct: Recombinant protein coated on ELISA plates; also called NTPDase6; ENTPD6
T1 sequence: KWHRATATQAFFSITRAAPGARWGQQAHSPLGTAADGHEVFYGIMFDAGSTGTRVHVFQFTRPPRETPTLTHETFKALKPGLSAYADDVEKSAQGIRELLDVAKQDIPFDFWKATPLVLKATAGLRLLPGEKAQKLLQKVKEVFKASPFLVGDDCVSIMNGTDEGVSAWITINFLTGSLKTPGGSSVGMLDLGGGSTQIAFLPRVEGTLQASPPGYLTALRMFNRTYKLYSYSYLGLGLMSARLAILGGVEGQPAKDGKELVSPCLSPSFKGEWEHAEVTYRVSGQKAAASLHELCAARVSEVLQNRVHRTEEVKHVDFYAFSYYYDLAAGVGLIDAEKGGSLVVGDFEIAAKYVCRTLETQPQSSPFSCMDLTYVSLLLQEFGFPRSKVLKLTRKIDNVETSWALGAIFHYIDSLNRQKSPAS
Protocol: (§1) Antibodies were tested for binding to recombinant human CD39 isoforms (Rec-huCD39 isoforms). The CD39 isoforms having amino acid sequences shown in the table below were coated in 96-well plate in PBS 1× at 500 ng/ml or 1 μg/ml at 4° C. overnight. Wells were washed in TBS Tween 20, and further saturated 2H at RT in TBS Blocking buffer (Thermo Fisher Scientific Inc.). Dose range concentration of primary antibody was incubated in TBS blocking buffer for 2 h at RT. Wells were washed in TBS Tween 20. […] Optical density was measured on Enspire at OD=450.

Human CD39-L4 = biological target: T2, Human CD39-L4 (human, UniProt O75356 25-428); assay: as above
T2 construct: Recombinant protein coated on ELISA plates; also called NTPDase5; ENTPD5
T2 sequence: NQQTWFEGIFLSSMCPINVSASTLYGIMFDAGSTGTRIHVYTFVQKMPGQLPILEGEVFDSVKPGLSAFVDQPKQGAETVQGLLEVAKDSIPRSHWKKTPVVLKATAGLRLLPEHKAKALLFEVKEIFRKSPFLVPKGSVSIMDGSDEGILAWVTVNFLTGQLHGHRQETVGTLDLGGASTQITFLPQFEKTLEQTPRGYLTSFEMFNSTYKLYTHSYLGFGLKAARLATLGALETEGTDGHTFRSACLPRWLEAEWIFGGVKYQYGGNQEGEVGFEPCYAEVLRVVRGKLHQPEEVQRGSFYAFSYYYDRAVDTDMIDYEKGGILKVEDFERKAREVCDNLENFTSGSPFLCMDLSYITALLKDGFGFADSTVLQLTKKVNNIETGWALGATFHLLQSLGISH
Protocol: as §1

Human CD39-L3 = biological target: T3, Human CD39-L3 (human, UniProt O75355 44-485, limits assumed); assay: as above
T3 construct: Recombinant protein coated on ELISA plates; also called NTPDase3; ENTPD3
T3 sequence: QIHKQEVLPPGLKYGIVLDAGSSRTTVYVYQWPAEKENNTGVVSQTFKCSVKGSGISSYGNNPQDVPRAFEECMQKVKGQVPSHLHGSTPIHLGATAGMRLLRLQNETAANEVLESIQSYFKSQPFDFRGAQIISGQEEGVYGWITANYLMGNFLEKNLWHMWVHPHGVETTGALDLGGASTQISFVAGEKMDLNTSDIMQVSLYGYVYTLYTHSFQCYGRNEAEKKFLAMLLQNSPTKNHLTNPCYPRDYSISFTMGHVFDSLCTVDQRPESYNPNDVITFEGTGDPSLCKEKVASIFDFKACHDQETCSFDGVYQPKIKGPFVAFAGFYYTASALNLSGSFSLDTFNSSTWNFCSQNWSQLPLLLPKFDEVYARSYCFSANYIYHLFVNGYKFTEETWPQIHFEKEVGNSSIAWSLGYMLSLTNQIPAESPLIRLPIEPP
Protocol: as §1

[1] = biological target: T4, human CD39 endogenously expressed on Ramos human lymphoma cells (human, UniProt P49961 1-510); assay: cell-based or functional assay
T4 sequence: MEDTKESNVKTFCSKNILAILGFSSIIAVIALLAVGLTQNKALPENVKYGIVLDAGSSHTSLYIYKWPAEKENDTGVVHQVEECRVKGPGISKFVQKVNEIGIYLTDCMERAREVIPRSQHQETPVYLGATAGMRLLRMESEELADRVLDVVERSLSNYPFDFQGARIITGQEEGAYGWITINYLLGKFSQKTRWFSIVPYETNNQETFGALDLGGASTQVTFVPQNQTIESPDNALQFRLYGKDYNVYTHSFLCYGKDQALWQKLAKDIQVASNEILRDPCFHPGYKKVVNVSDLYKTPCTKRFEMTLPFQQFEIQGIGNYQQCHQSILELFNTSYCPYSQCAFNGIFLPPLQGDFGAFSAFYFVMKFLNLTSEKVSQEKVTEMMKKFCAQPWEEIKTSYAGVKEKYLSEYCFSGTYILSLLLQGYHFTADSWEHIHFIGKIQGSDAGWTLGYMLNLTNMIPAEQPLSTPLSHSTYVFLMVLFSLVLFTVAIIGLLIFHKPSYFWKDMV

binding result (Human CD39-L2): no binding | binding result (Human CD39-L4): no binding | binding result (Human CD39-L3): no binding | inhibition of CD39 enzymatic activity (AMP generated by Ramos cells, Maldi TOF) [1]: ≥ 90%
B1: mAb7 (antibody, human IgG1, V domains shown)
VH: QIQLVQSGSELKKPGASVKVSCKASGYTFTHYGMNWVRQAPGKGLKWMGWINTYTGEPTYADDFKGRFVFSLDASVSTAYLQISSLKAEDTAVYYCARRRYEGNYVFYYFDYWGQGTTVTVSS
VL: DIQMTQSPSSLSASVGDRVTITCRASENIYSYFSWYQQKPGKAPKLLVYTAKTLAEGVPSRFSGSGSGTDFTLTISSLQPEDFATYYCQHHYVTPYTFGGGTKVEIK
notes: Produced as Fc silent recombinant human IgG1 with heavy chain N297Q (Kabat EU numbering) and huCk constant domain; also called anti-CD39 antibody mAb7

Source: US20190071514A1, “ANTI-CD39 ANTIBODIES” (INNATE PHARMA, priority 2016, published 2019)
